One may read the stoichiometry N as a count of units in the complex or per binding partner.

Data on one molecule can be found in paper PMC9525694.

In the test the target is T1, Bak (human (endogenous in HeLa)), Q16611.
T1 chain: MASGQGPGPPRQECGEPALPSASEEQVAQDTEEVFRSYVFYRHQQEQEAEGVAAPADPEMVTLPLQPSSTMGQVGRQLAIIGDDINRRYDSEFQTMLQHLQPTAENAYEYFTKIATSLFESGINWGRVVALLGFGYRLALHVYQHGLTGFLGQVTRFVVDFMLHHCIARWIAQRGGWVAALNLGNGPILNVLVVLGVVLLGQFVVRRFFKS
As to the kind of experiment: native gel or EMSA; BN-PAGE (6-16.5% gradient, 4 °C) of mitochondria from uninfected HeLa cells incubated with recombinant tBid for 30 min, lysed in 1% digitonin; Western blot for Bak. The note with it: remark: other sources report otherwise. In general terms: In EMSA bound probe runs differently from free probe, usually more slowly.

B1: Bak, Q16611 1-211 (natural protein)
chain: MASGQGPGPPRQECGEPALPSASEEQVAQDTEEVFRSYVFYRHQQEQEAEGVAAPADPEMVTLPLQPSSTMGQVGRQLAIIGDDINRRYDSEFQTMLQHLQPTAENAYEYFTKIATSLFESGINWGRVVALLGFGYRLALHVYQHGLTGFLGQVTRFVVDFMLHHCIARWIAQRGGWVAALNLGNGPILNVLVVLGVVLLGQFVVRRFFKS
For the molecule B1, the stoichiometry N amounted to 2.
